Measured values published in paper PMC5951583 (PLoS Pathogens, 2018).
“And” between values parts separate entries of the source, which are not always exact repeats. Identical values can stand only once.

Molecular target: HC-fragment of BoNT/DC fused to a C-terminal Streptag (HCDCS; AA 863–1285), wild-type (C. botulinum strain OFD05, UniProt A5JGM8 863-1285)
Test: SPR
Conditions: both partners purified

Row | Binder | koff | Kd [nM] | kon [M⁻¹ s⁻¹]
1 | GST-rSyt-II 1–90 (domain or fragment, also called GST-Syt-II 1–90; Syt-II with its TMD) MRNIFKRNQEPIVAPATTTATMPLAPAAPADNSTESTGTGESQEDMFAKLKDKFFNEINKIPLPPWALIAMAVVAGLLLLTCCFCICKKC | 0.49 s⁻¹ and 0.63 s⁻¹ | – | –
2 | GST-rSyt-II 1–61 (domain or fragment, also called GST-Syt-II 1–61; isolated Syt-II) MRNIFKRNQEPIVAPATTTATMPLAPAAPADNSTESTGTGESQEDMFAKLKDKFFNEINKI | 0.24 s⁻¹ | 1800 | 230000
